From patent publication US20250368744A1 (CONCEPT TO MEDICINE BIOTECH, published 2025)
Residue numbers refer to the chain shown, from its start. Where two headings read alike, the source gives them in different places. Each block holds one binder with its values, some of them ahead of it.

Columns and labels:
cyno CCR8 [1] = target: T1, cyno CCR8 (cynomolgus, UniProt G7NYJ2 1-355); test: FACS (MFI-PE) on CHO-K1 cyno CCR8 cells; fitted value, the curve stays at the baseline
T1 construct: whole, on cells; also called cynomolgus CCR8 protein
T1 sequence (G7NYJ2 entry or part of it): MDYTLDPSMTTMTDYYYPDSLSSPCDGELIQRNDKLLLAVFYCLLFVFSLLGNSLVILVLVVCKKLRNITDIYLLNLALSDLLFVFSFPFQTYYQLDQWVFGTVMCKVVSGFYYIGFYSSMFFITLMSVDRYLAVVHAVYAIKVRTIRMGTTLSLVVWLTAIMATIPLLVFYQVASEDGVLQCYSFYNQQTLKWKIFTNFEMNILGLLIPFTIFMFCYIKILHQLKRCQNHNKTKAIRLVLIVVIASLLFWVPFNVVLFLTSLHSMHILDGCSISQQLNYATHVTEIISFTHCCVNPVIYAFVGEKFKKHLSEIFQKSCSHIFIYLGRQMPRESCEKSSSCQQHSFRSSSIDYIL
Method: (§1) Briefly, HEK293 hCCR8 cell line, CHO-K1 cyno CCR8 cell line or CHO-K1 hCCR4 cell line was first incubated with 5-fold serially diluted and 8 doses with the above 10 chimeric Abs and hlgG1 control starting from 100 nM at 4° C. for 30 mins. After washing by FACS buffer, PE Goat anti-Human IgG Fc Secondary Antibody (eBioscience™, Invitrogen) was added to each well and incubated at 4° C. for 30 mins. Samples were washed twice with FACS buffer. The mean florescence intensity (MFI) of PE was evaluated by MACSQuant Analyzer 16.

human CCR4 = target: T2, human CCR4 (human, UniProt P51679 1-360); test: FACS, CHO-K1 hCCR4 cells
T2 construct: whole, on cells; also called hCCR4
T2 sequence (looked up): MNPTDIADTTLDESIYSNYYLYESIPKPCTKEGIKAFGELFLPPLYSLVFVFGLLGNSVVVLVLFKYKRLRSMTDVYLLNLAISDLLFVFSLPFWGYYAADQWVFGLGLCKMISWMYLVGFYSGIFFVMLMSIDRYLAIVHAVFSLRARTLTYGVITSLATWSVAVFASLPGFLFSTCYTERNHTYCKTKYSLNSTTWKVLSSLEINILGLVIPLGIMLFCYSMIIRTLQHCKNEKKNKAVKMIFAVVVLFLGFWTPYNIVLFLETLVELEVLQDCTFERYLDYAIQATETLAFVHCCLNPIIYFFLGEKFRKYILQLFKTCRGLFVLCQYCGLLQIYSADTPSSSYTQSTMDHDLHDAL
Method: as §1

[2] = target: T3, human C-C motif chemokine receptor 8 (CCR8) (human, UniProt P51685 1-355); test: FACS (MFI-PE) on HEK293 hCCR8 cells
T3 construct: whole, on cells; also called human CCR8; hCCR8
T3 sequence (P51685 whole entry): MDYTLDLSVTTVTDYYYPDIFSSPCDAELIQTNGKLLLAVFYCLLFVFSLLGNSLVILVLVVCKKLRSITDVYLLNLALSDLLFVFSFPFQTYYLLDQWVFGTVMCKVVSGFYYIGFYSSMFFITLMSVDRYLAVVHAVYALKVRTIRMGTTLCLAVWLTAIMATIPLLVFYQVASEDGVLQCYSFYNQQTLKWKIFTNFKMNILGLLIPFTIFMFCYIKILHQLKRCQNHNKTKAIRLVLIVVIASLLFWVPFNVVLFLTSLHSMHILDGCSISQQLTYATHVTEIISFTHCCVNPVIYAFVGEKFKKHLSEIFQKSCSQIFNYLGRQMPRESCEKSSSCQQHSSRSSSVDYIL
Method: as §1

[3] = target: T3, human C-C motif chemokine receptor 8 …; test: cell-based or functional assay
[4] = target: T3, human C-C motif chemokine receptor 8 …; test: cell-based or functional assay; remark: listed apart in the source
cyno CCR8 [5] = target: T1, cyno CCR8; test: FACS (MFI-PE) on CHO-K1 cyno CCR8 cells
Method: as §1

[6] = target: T3, human C-C motif chemokine receptor 8 …; test: cell-based or functional assay; remark: listed apart in the source
[7] = target: T3, human C-C motif chemokine receptor 8 …; test: FACS (MFI-PE) on CHO-K1 hCCR8 cells
[8] = target: T3, human C-C motif chemokine receptor 8 …; test: cell-based or functional assay; remark: listed apart in the source
cyno CCR8 [9] = target: T1, cyno CCR8; test: FACS (MFI-PE) on CHO-K1 cyno CCR8 cells; remark: listed apart in the source
[10] = target: T3, human C-C motif chemokine receptor 8 …; test: FACS (MFI-PE) on HEK293 hCCR8 cells; remark: listed apart in the source
[11] = target: T3, human C-C motif chemokine receptor 8 …; test: cell-based or functional assay; remark: listed apart in the source
[12] = target: T3, human C-C motif chemokine receptor 8 …; test: cell-based or functional assay; remark: listed apart in the source
cyno CCR8 [13] = target: T1, cyno CCR8; test: FACS (MFI-PE) on CHO-K1 cyno CCR8 cells; fitted value, the curve hardly leaves the baseline
cyno CCR8 [14] = target: T1, cyno CCR8; test: FACS (MFI-PE) on CHO-K1 cyno CCR8 cells; fitted value far outside the range tested (up to 100 nM)
[15] = target: T3, human C-C motif chemokine receptor 8 …; test: FACS (MFI PE) on HEK293 hCCR8 cells
[16] = target: T3, human C-C motif chemokine receptor 8 …; test: cell-based or functional assay; remark: listed apart in the source
[17] = target: T3, human C-C motif chemokine receptor 8 …; test: cell-based or functional assay; remark: listed apart in the source

EC50 (cyno CCR8 [1]): 29.9 nM | EC50 [2]: 0.107 nM | IC50, hCCL1-induced beta-arrestin recruitment (RLU), CHO-K1 hCCR8 cells [3]: 13.8 nM | IC50, hCCL1-induced Ca2+ flux (stimulation %), Chem-1 hCCR8 cells [lower graph] [4]: 5.77 nM | IC50, hCCL1-induced Ca2+ flux (stimulation %), Chem-1 hCCR8 cells [upper graph] [4]: 7.6 nM
B1: 163H9D5 (antibody, V domains shown)
VH: EVQLVESGGGLVQPKGSLKLSCAASGFSFNTYAMNWVRQAPGKGLKWVARIRTKSNNYATHYADSVKDRFTLSRDDSESMLYLQMNNLKTEDTAMYYCVGGGYGSSASNAMAYWGQGTSVTVSS
VL: DIVMTQAAPSVPVTPGESVSISCRSSKSLLHSNGNTYLYWFLQRPGQSPQLLIFRMSNLASGVPDRFSGSGSGTAFTLRISRVEAEDVGVYYCMQHLEYPFTFGSGTKLEIK
notes: tested as chimeric mAb
binding result (human CCR4): no binding (tested: 100 nM (highest concentration tested))

EC50 (cyno CCR8 [5]): 3.16 nM | IC50, hCCL1-induced beta-arrestin recruitment (RLU), CHO-K1 hCCR8 cells [12]: 3.02 nM | IC50, hCCL1-induced beta-arrestin recruitment (RLU), CHO-K1 hCCR8 cells [6]: 0.143 nM | EC50 [7]: 0.132 nM | EC50 [2]: 0.0741 nM | IC50, hCCL1-induced Ca2+ flux (stimulation %), Chem-1 hCCR8 cells [8]: 0.55 nM | EC50 (cyno CCR8 [9]): 1.53 nM | EC50 [10]: 0.05 nM | IC50, hCCL1-induced beta-arrestin recruitment (RLU), CHO-K1 hCCR8 cells [3]: 0.771 nM | IC50, hCCL1-induced migration of BaF3 hCCR8 cells (RLU) [cont'd) C] [11]: 0.798 nM | IC50, hCCL1-induced Ca2+ flux (stimulation %), Chem-1 hCCR8 cells [lower graph] [4]: 1.89 nM
B3: 200C9B9 (antibody, V domains shown)
VH: EVQLVESGGGLVQPKGSLKLSCAASGFSFNTYVMNWVRQAPGKGLNWVARIRTKSNNYATFYVDSVKDRFTISRDDSENMLYLQMNNLKIEDTAIYYCVSGTITRLGAGLDYWGQGTSVTVSS
VL: B1 VL with F54Y, S105G
notes: tested as chimeric mAb; also called 200C9B9-C
binding result (human CCR4): no binding (tested: 100 nM (highest concentration tested))

IC50, hCCL1-induced beta-arrestin recruitment (RLU), CHO-K1 hCCR8 cells [6]: 0.288 nM | EC50 (cyno CCR8 [9]): 0.517 nM
B4: 195H8D10-C2 (antibody, V domains shown)
VH: B3 VH with E6G, S28N, N46E, F61Y, V63A, N79S, M80K, I90T, I95M, A108G
VL: B1 VL with S28R, G34A, F54Y, S105G
notes: also called 195H8D10 VH with 195H8D10 VL NG-NA

IC50, hCCL1-induced beta-arrestin recruitment (RLU), CHO-K1 hCCR8 cells [6]: 0.154 nM | EC50 [7]: 0.399 nM | EC50 (cyno CCR8 [14]): > 100 nM
B7: 200C9B9-C1 (antibody, V domains shown)
VH: B3 VH
VL: B1 VL with N33Q, F54Y, S105G
notes: also called 200C9B9 VH with 200C9B9 VL NG-QG

EC50 [15]: 0.21 nM | IC50, hCCL1-induced Ca2+ flux (% stimulation), Chem-1 hCCR8 cells [16]: 12.9 nM | IC50, hCCL1-induced beta-arrestin recruitment (% stimulation), CHO-K1 hCCR8 cells [17]: 1.68 nM
B8: 4A19 (antibody, V domains shown)
VH: QVQLVQSGAEVKKPGASVKVSCKASGYTFTDSEMHWVRQATGQGLEWMGAIQPETGGTAYNQKFKARVTMTRDTSISTAYMELSSLRSEDTAVYYCARRRRNFDYWGQGTLVTVSS
VL: DIVMTQTPLSLSVTPGQPASISCRSSQSLFHSSGNTYLHWYLQKPGQPPQLLIYKVSNRFSGVPDRFSGSGSGTDFTLKISRVEAEDVGVYYCSQSTHVPFTFGQGTKLEIKR

IC50, hCCL1-induced beta-arrestin recruitment (RLU), CHO-K1 hCCR8 cells [12]: 5.25 nM | IC50, hCCL1-induced Ca2+ flux (stimulation %), Chem-1 hCCR8 cells [8]: 0.49 nM | EC50 [10]: 0.092 nM
B9: Hu195H8D10-7 NG-NA (antibody, V domains shown)
VH: EVQLVESGGGLVQPGGSLRLSCAASGFNFNTYVMNWVRQAPGKGLEWVARIRTKSNNYATYYADSVKDRFTISRDDSKNSLYLQMNSLKTEDTAVYYCVSGTITRLGGGLDYWGQGTLVTVSS
VL: DIVMTQSPLSLPVTPGEPASISCRSSKRLLHSNANTYLYWYLQKPGQSPQLLIYRMSNLASGVPDRFSGSGSGTAFTLKISRVEAEDVGVYYCMQHLEYPFTFGGGTKLEIK
notes: humanized, PTM site removed

Further lines, the binder ahead of its results:

B2: 195H8D10 (antibody, V domains shown)
VH: B9 VH with E6G, G15K, R19K, K78E, N79S, S80K, S87N, V95M, L118S
VL: B1 VL with S28R, F54Y, S105G
notes: tested as chimeric mAb; also called 195H8D10-C
EC50 (cyno CCR8 [5]): 0.37 nM | binding result (human CCR4): no binding (tested: 100 nM (highest concentration tested)) | IC50, hCCL1-induced beta-arrestin recruitment (RLU), CHO-K1 hCCR8 cells [6]: 0.55 nM | EC50 [7]: 0.211 nM | EC50 [2]: 0.0746 nM | IC50, hCCL1-induced Ca2+ flux (stimulation %), Chem-1 hCCR8 cells [8]: 0.33 nM | EC50 (cyno CCR8 [9]): 0.378 nM | EC50 [10]: 0.041 nM | IC50, hCCL1-induced beta-arrestin recruitment (RLU), CHO-K1 hCCR8 cells [3]: 3.48 nM | IC50, hCCL1-induced migration of BaF3 hCCR8 cells (RLU) [cont'd) C] [11]: 0.478 nM | IC50, hCCL1-induced Ca2+ flux (stimulation %), Chem-1 hCCR8 cells [lower graph] [4]: 1.62 nM

B5: 200C9B9-C2 (antibody, V domains shown)
VH: B3 VH
VL: B1 VL with G34A, F54Y, S105G
notes: also called 200C9B9 VH with 200C9B9 VL NG-NA
EC50 [7]: 0.207 nM | EC50 (cyno CCR8 [9]): 14.6 nM

B6: 195H8D10-C1 (antibody, V domains shown)
VH: B9 VH with E6G, G15K, R19K, K78E, N79S, S80K, S87N, V95M, L118S
VL: B1 VL with S28R, N33Q, F54Y, S105G
notes: also called 195H8D10 VH with 195H8D10 VL NG-QG
EC50 [7]: 0.29 nM | EC50 (cyno CCR8 [13]): 68.1 nM

B10: Hu200C9B9-7 NG-NA (antibody, V domains shown)
VH: B9 VH with N28S, Y61F, A63V, G108A
VL: B9 VL with R28S
notes: humanized, PTM site removed
EC50 [15]: 0.15 nM | IC50 (read off the curve), hCCL1-induced beta-arrestin recruitment (RLU), CHO-K1 hCCR8 cells [12]: ~2 nM | IC50, hCCL1-induced Ca2+ flux (% stimulation), Chem-1 hCCR8 cells [16]: 4.33 nM | IC50, hCCL1-induced beta-arrestin recruitment (% stimulation), CHO-K1 hCCR8 cells [17]: 1.58 nM | IC50, hCCL1-induced Ca2+ flux (stimulation %), Chem-1 hCCR8 cells [8]: 0.36 nM | EC50 [10]: 0.069 nM

B11: Hu200C9B9-3 NG-NA (antibody, V domains shown)
VH: B9 VH with N28S, A49G, Y61F, A63V, V99A, S100R, G108A
VL: B9 VL with R28S
notes: humanized, PTM site removed
IC50, hCCL1-induced beta-arrestin recruitment (RLU), CHO-K1 hCCR8 cells [12]: 1.74 nM | IC50, hCCL1-induced Ca2+ flux (stimulation %), Chem-1 hCCR8 cells [8]: 0.21 nM | EC50 [10]: 0.052 nM
